Source: PMC1838920

Target: T1, His6-CIII (bacteriophage lambda CIII) (bacteriophage lambda), P03044
T1 chain: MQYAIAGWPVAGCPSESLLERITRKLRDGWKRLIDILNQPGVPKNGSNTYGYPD
Experiment: cross-linking; 10 µM His6-CIII in PBS with 0.1 mg/ml BSA at 42°C, 0.25% glutaraldehyde for 1 or 5 minutes, stopped by 200 mM glycine; NuPAGE and western blot against the His6 tag
Details: remark: other sources report otherwise

B1: His6-CIII (bacteriophage lambda CIII), P03044 1-54 (natural protein)
chain: T1 chain
  stoichiometry N: < 12
